B1: 5425777 (nucleic acid, listed as Homo sapiens)
DNA: CCCAGACACAAGTCTTCACTCCTTCCTGCGAGCCCTGAGGAAGCCTTCTTTCCCCAGACATGGCCAACAAGGGTCCTTCCTATGGCATGAGCCGCGAAGTGCAGTCCAAAATCGAGAAGAAGTATGACGAGGAGCTGGAGGAGCGGCTGGTGGAGTGGATCATAGTGCAGTGTGGCCCTGATGTGGGCCGCCCAGACCGTGGGCGCTTGGGCTTCCAGGTCTGGCTGAAGAATGGCGTGATTCTGAGCAAGCTGGTGAACAGCCTGTACCCTGATGGCTCCAAGCCGGTGAAGGTGCCCGAGAACCCACCCTCCATGGTCTTCAAGCAGATGGAGCAGGTGGCTCAGTTCCTGAAGGCGGCTGAGGACTATGGGGTCATCAAGACTGACATGTTCCAGACTGTTGACCTCTTTGAAGGCAAAGACATGGCAGCAGTGCAGAGGACCCTGATGGCTTTGGGCAGCTTGGCAGTGACCAAGAATGATGGGCACTACCGTGGAGATCCCAACTGGTTTATGAAGAAAGCGCAGGAGCATAAGAGGGAATTCACAGAGAGCCAGCTGCAGGAGGGAAAGCATGTCATTGGCCTTCAGATGGGCAGCAACAGAGGGGCCTCCCAGGCCGGCATGACAGGCTACGGACGACCTCGGCAGATCATCAGTTAGAGCGGAGAGGGCTAGCCCTGAGCCCGGCCCTCCCCCAGCTCCTTGGCTGCAGCCATCCCGCTTAGCCTGCCTCACCCACACCCGTGTGGTACCTTCAGCCCTGGCCAAGCTTTGAGGCTCTGTCACTGAGCAATGGTAACTGCACCTGGGCAGCTCCTCCCTGTGCCCCCAGCCTCAGCCCAACTTCTTACCCGAAAGCATCACTGCCTTGGGCCCCTCCCTCCCGGCTGCCCCCATCACCTCTACTGTCTCCTCCCTGGGCTAAGCAGGGGAGAAGCGGGCTGGGGGTAGCCTGGATGTGGGCCAAGTCCACTGTCCTCCTTGGCGGCAAAAGCCCATTGAAGAAGAACCAGCCCAGCCTGCCCCCTATCTTGTCCTGGAATATTTTTGGGGTTGGAACTCAAAAAAAAAAAAGGGGGGGCCCGCGCGTTTATTGTGCCTTCTTCAGACCCCGGGAATTAATTCCCGACCGGATACCTTGGCAGCTATATTGAATCTTGCAACCGTTTAACTTACCATTTTTTGCCTCAGCCCGGTGTTTCTGGCTTGTTTGGGAAGCCGGTTGGTCCTCTTTGGTGTTCCGTTCCACGCGAAAAGGTTTAGACAGACTTCCGGAACACTTCCGGGTTCCCCAGACACCAGCTTCTTTGTTAGGGTCCCCACCGGTCATTGTCGCCCGGATCGCTTGGTCCACCGGCGCGGTTAACGTTTTTTCAGCCGGGCGATGTCA
modifications: Incyte ID No 5425777CA2

Tests used:
[1] = system: adipocytes obtained from normal donors; experiment: microarray differential expression in PPARγ agonist-treated adipocytes, normal donor; type: cell-based, human
From the text: (§1) Incyte clones represent template sequences derived from the LIFESEQ GOLD assembled human sequence database (Incyte Genomics). In cases where more than one clone was available for a particular template, the 5′-most clone in the template was used on the microarray. The HUMAN GENOME GEM series 1-5 microarrays (Incyte Genomics) contain 45,320 array elements which represent 22,632 annotated clusters and 22,688 unannotated clusters. For the UNIGEM series microarrays (Incyte Genomics), Incyte clones were mapped to non-redundant Unigene clusters (Unigene database (build 46), NCBI; Shuler (1997) J Mol Med 75:694-698), and the 5′ clone with the strongest BLAST alignment (at least 90% identity and 100 bp overlap) was chosen, verified, and used in the construction of the microarray. The UNIGEM V 2.0 microarray (Incyte Genomics) contains 8,502 array elements which represent 8,372 annotated genes and 130 unannotated clusters.
(§2) To construct microarrays, cDNAs were amplified from bacterial cells using primers complementary to vector sequences flanking the cDNA insert. Thirty cycles of PCR increased the initial quantity of cDNAs from 1-2 ng to a final quantity greater than 5 μg. Amplified cDNAs were then purified using SEPHACRYL-400 columns (APB). Purified cDNAs were immobilized on polymer-coated glass slides. Glass microscope slides (Coming, Corning N.Y.) were cleaned by ultrasound in 0.1% SDS and acetone, with extensive distilled water washes between and after treatments. Glass slides were etched in 4% hydrofluoric acid (VWR Scientific Products, West Chester Pa.), washed thoroughly in distilled water, and coated with 0.05% aminopropyl silane (Sigma-Aldrich) in 95% ethanol. Coated slides were cured in a 110° C. oven. cDNAs were applied to the coated glass substrate using a procedure described in U.S. Pat. No. 5,807,522. One microliter of the cDNA at an average concentration of 100 ng/ul was loaded into the open capillary printing element by a high-speed robotic apparatus which then deposited about 5 nl of cDNA per slide.
(§3) Microarrays were UV-crosslinked using a STRATALINKER UV-crosslinker (Stratagene), and then washed at room temperature once in 0.2% SDS and three times in distilled water. Non-specific binding sites were blocked by incubation of microarrays in 0.2% casein in phosphate buffered saline (Tropix, Bedford Mass.) for 30 minutes at 60° C. followed by washes in 0.2% SDS and distilled water as before.
(§4) Primary cultures of preadipocytes were obtained from subcutaneous fat obtained from a person with a body mass index (BMI; kg/m^2) of 23.59 and from a person with a BMI of 32.47. Individuals with a BMI between 18.5 and 24.9 are classified as ‘healthy’ or normal, whereas individuals with a BMI between 30.0 and 39.9 are classified as obese. Preadipocytes were cultured in F-10 medium with 10% fetal bovine serum. Confluent cells were either treated with 1 μM rosiglitazone (BRL49653), 0.2 mM IBMX, and 100 nM human insulin for 3 days; or remained untreated. Thereafter, the cells were cultured in F-10 medium with 3% fetal bovine serum and 100 nM human insulin. Differentiated adipocytes were compared to untreated preadipocytes maintained in culture in the absence of inducing agents. Between 80% and 90% of the preadipocytes observed under a phase contrast microscope had differentiated to adipocytes by day 15. Cells were harvested at 1, 2, 8, and 15 days post treatment.
(§5) Cells were harvested and lysed in 1 ml of TRIZOL reagent (5×10^6 cells/ml; Invitrogen). […]

[2] = system: adipocytes obtained from obese donors; experiment: microarray differential expression in PPARγ agonist-treated adipocytes, obese donor; type: cell-based, human
From the text: as §1, §2, §3, §4, §5

| Molecule | regulation in response to PPARγ agonist (in words) ([1]; adipocytes from normal donors) | regulation in response to PPARγ agonist (in words) ([2]; adipocytes from obese donors) | differential expression, Normal 1 d ([1]; normal-donor adipocytes treated with PPARγ agonist (1 μM rosiglitazone, 0.2 mM IBMX, 100 nM insulin), 1 day, relative to untreated time-matched controls, negative = downregulation) [log base 2] | differential expression, Normal 2 d ([1]; normal-donor adipocytes treated with PPARγ agonist (1 μM rosiglitazone, 0.2 mM IBMX, 100 nM insulin), 2 days, relative to untreated time-matched controls, negative = downregulation) [log base 2] | differential expression, Normal 8 d ([1]; normal-donor adipocytes treated with PPARγ agonist (1 μM rosiglitazone, 0.2 mM IBMX, 100 nM insulin), 8 days, relative to untreated time-matched controls, negative = downregulation) [log base 2] | differential expression, Normal mean ([1]; normal-donor adipocytes treated with PPARγ agonist, averaged over 1, 2, 8 and 15 days) [log base 2] | differential expression, Obese 1 d ([2]; obese-donor adipocytes treated with PPARγ agonist (1 μM rosiglitazone, 0.2 mM IBMX, 100 nM insulin), 1 day, relative to untreated time-matched controls, negative = downregulation) [log base 2] | differential expression, Obese 2 d ([2]; obese-donor adipocytes treated with PPARγ agonist (1 μM rosiglitazone, 0.2 mM IBMX, 100 nM insulin), 2 days, relative to untreated time-matched controls, negative = downregulation) [log base 2] | differential expression, Obese 8 d ([2]; obese-donor adipocytes treated with PPARγ agonist (1 μM rosiglitazone, 0.2 mM IBMX, 100 nM insulin), 8 days, relative to untreated time-matched controls, negative = downregulation) [log base 2] | differential expression, Obese mean ([2]; obese-donor adipocytes treated with PPARγ agonist, averaged over 1, 2, 8 and 15 days) [log base 2] |
| --- | --- | --- | --- | --- | --- | --- | --- | --- | --- | --- |
| SEQ ID NO:29: cDNA, template 235636.1, represented by clone 3075694; integrin binding protein Del-1 | unchanged | downregulated |  |  |  |  |  |  |  |  |
| B1 |  |  | −2.16 | −3.01 | −0.23 | −1.80 | −2.55 | −3.20 | −2.02 | −2.59 |

From patent US20030096272A1, “Genes regulated by peroxisome proliferator-activated receptor gamma agonist” (Incyte Genomics, Inc., priority 2001, published 2003)
